Measurements published in the supplement of paper PMC9112550, “Optimization of the antimicrobial peptide Bac7 by deep mutational scanning” (BMC Biology, 2022).

Tested on: Escherichia coli TOP10
Test: shrunken log2 fold change of peptide-encoding DNA abundance (4.5 h post-induction vs induction); higher = less antimicrobial activity (less host growth inhibition)
Conditions: time post-induction: 4.5 h; library: site-saturation at positions 5, 18, 19, 20
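Also: peptides expressed intracellularly from a pBAD plasmid library in pooled LB shake-flask culture, induced with 0.3% L-arabinose, DNA abundance read by NGS, three biological replicates, DESeq2 with apeglm shrinkage.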

RRIRSRPPRLPRPRPRPNPHPRP
shrunken log2 fold change: -0.139

RRIRSRPPRLPRPRPRPNQDPRP
shrunken log2 fold change: -0.3

RRIRSRPPRLPRPRPRPNQHPRP
shrunken log2 fold change: -0.201

RRIRSRPPRLPRPRPRPNQLPRP
shrunken log2 fold change: -0.218

RRIRSRPPRLPRPRPRPNSHPRP
shrunken log2 fold change: -0.402

RRIRSRPPRLPRPRPRPNSIPRP
shrunken log2 fold change: -0.861

RRIRSRPPRLPRPRPRPNTTPRP
shrunken log2 fold change: -0.194

RRIRSRPPRLPRPRPRPNWSPRP
shrunken log2 fold change: -0.249

RRIRSRPPRLPRPRPRPNWYPRP
shrunken log2 fold change: -0.382

RRIRSRPPRLPRPRPRPNYGPRP
shrunken log2 fold change: -0.0945

RRIRSRPPRLPRPRPRPNYNPRP
shrunken log2 fold change: -0.904

RRIRSRPPRLPRPRPRPPAAPRP
shrunken log2 fold change: 1.1

RRIRSRPPRLPRPRPRPPAVPRP
shrunken log2 fold change: 0.711

RRIRSRPPRLPRPRPRPPCPPRP
shrunken log2 fold change: 0.319

RRIRSRPPRLPRPRPRPPDKPRP
shrunken log2 fold change: 0.0307

RRIRSRPPRLPRPRPRPPDTPRP
shrunken log2 fold change: 0.237

RRIRSRPPRLPRPRPRPPEIPRP
shrunken log2 fold change: -0.19

RRIRSRPPRLPRPRPRPPGEPRP
shrunken log2 fold change: 0.756

RRIRSRPPRLPRPRPRPPGMPRP
shrunken log2 fold change: -0.0105

RRIRSRPPRLPRPRPRPPGRPRP
shrunken log2 fold change: 0.482

RRIRSRPPRLPRPRPRPPGYPRP
shrunken log2 fold change: 0.0642

RRIRSRPPRLPRPRPRPPHEPRP
shrunken log2 fold change: 0.229

RRIRSRPPRLPRPRPRPPHSPRP
shrunken log2 fold change: 0.113

RRIRSRPPRLPRPRPRPPHWPRP
shrunken log2 fold change: 0.5

RRIRSRPPRLPRPRPRPPIGPRP
shrunken log2 fold change: 0.297

RRIRSRPPRLPRPRPRPPKCPRP
shrunken log2 fold change: -0.087

RRIRSRPPRLPRPRPRPPLIPRP
shrunken log2 fold change: 0.191

RRIRSRPPRLPRPRPRPPLVPRP
shrunken log2 fold change: -0.0483

RRIRSRPPRLPRPRPRPPLYPRP
shrunken log2 fold change: -0.0605

RRIRSRPPRLPRPRPRPPMWPRP
shrunken log2 fold change: 0.54

RRIRSRPPRLPRPRPRPPNEPRP
shrunken log2 fold change: 0.0505

RRIRSRPPRLPRPRPRPPNHPRP
shrunken log2 fold change: -0.16

RRIRSRPPRLPRPRPRPPNYPRP
shrunken log2 fold change: -0.606

RRIRSRPPRLPRPRPRPPPNPRP
shrunken log2 fold change: 0.707

RRIRSRPPRLPRPRPRPPQHPRP
shrunken log2 fold change: 0.184

RRIRSRPPRLPRPRPRPPRSPRP
shrunken log2 fold change: 0.483

RRIRSRPPRLPRPRPRPPRVPRP
shrunken log2 fold change: 0.142

RRIRSRPPRLPRPRPRPPSCPRP
shrunken log2 fold change: -0.0434

RRIRSRPPRLPRPRPRPPSHPRP
shrunken log2 fold change: 0.103

RRIRSRPPRLPRPRPRPPTQPRP
shrunken log2 fold change: 0.356

RRIRSRPPRLPRPRPRPPVEPRP
shrunken log2 fold change: -0.0919

RRIRSRPPRLPRPRPRPPVMPRP
shrunken log2 fold change: 0.0439

RRIRSRPPRLPRPRPRPPVYPRP
shrunken log2 fold change: 0.0599

RRIRSRPPRLPRPRPRPPWNPRP
shrunken log2 fold change: 0.0621

RRIRSRPPRLPRPRPRPQASPRP
shrunken log2 fold change: 0.552

RRIRSRPPRLPRPRPRPQAWPRP
shrunken log2 fold change: -0.0983

RRIRSRPPRLPRPRPRPQCCPRP
shrunken log2 fold change: -0.312

RRIRSRPPRLPRPRPRPQCSPRP
shrunken log2 fold change: -0.0935

RRIRSRPPRLPRPRPRPQEDPRP
shrunken log2 fold change: -0.244

RRIRSRPPRLPRPRPRPQFGPRP
shrunken log2 fold change: 0.0239

RRIRSRPPRLPRPRPRPQFMPRP
shrunken log2 fold change: -0.274

RRIRSRPPRLPRPRPRPQHDPRP
shrunken log2 fold change: -0.227

RRIRSRPPRLPRPRPRPQHKPRP
shrunken log2 fold change: -0.131

RRIRSRPPRLPRPRPRPQHLPRP
shrunken log2 fold change: -0.372

RRIRSRPPRLPRPRPRPQILPRP
shrunken log2 fold change: -0.0216

RRIRSRPPRLPRPRPRPQIWPRP
shrunken log2 fold change: -0.167

RRIRSRPPRLPRPRPRPQKGPRP
shrunken log2 fold change: -0.0456

RRIRSRPPRLPRPRPRPQKNPRP
shrunken log2 fold change: -0.247

RRIRSRPPRLPRPRPRPQLLPRP
shrunken log2 fold change: -0.182

RRIRSRPPRLPRPRPRPQMEPRP
shrunken log2 fold change: 0.0832

RRIRSRPPRLPRPRPRPQNEPRP
shrunken log2 fold change: -0.0107

RRIRSRPPRLPRPRPRPQNHPRP
shrunken log2 fold change: -0.604

RRIRSRPPRLPRPRPRPQNNPRP
shrunken log2 fold change: -0.573

RRIRSRPPRLPRPRPRPQPGPRP
shrunken log2 fold change: 0.287

RRIRSRPPRLPRPRPRPQPIPRP
shrunken log2 fold change: 0.000168

RRIRSRPPRLPRPRPRPQPKPRP
shrunken log2 fold change: 0.526

RRIRSRPPRLPRPRPRPQQFPRP
shrunken log2 fold change: -0.123

RRIRSRPPRLPRPRPRPQRWPRP
shrunken log2 fold change: 0.319

RRIRSRPPRLPRPRPRPQSFPRP
shrunken log2 fold change: -0.0939

RRIRSRPPRLPRPRPRPQSQPRP
shrunken log2 fold change: -0.258

RRIRSRPPRLPRPRPRPQSRPRP
shrunken log2 fold change: 0.0912

RRIRSRPPRLPRPRPRPQSVPRP
shrunken log2 fold change: -0.138

RRIRSRPPRLPRPRPRPQTRPRP
shrunken log2 fold change: 0.181

RRIRSRPPRLPRPRPRPQTTPRP
shrunken log2 fold change: -0.237

RRIRSRPPRLPRPRPRPQTWPRP
shrunken log2 fold change: -0.164

RRIRSRPPRLPRPRPRPQVGPRP
shrunken log2 fold change: -0.175

RRIRSRPPRLPRPRPRPQVMPRP
shrunken log2 fold change: -0.193

RRIRSRPPRLPRPRPRPQVNPRP
shrunken log2 fold change: -0.00752

RRIRSRPPRLPRPRPRPRASPRP
shrunken log2 fold change: 0.346

RRIRSRPPRLPRPRPRPRCPPRP
shrunken log2 fold change: 0.177

RRIRSRPPRLPRPRPRPRDAPRP
shrunken log2 fold change: 0.328

RRIRSRPPRLPRPRPRPRDYPRP
shrunken log2 fold change: -0.341

RRIRSRPPRLPRPRPRPRECPRP
shrunken log2 fold change: 0.71

RRIRSRPPRLPRPRPRPRFWPRP
shrunken log2 fold change: 0.269

RRIRSRPPRLPRPRPRPRHAPRP
shrunken log2 fold change: 0.39

RRIRSRPPRLPRPRPRPRHLPRP
shrunken log2 fold change: -0.319

RRIRSRPPRLPRPRPRPRIAPRP
shrunken log2 fold change: 0.174

RRIRSRPPRLPRPRPRPRIFPRP
shrunken log2 fold change: 0.206

RRIRSRPPRLPRPRPRPRIMPRP
shrunken log2 fold change: -0.105

RRIRSRPPRLPRPRPRPRKGPRP
shrunken log2 fold change: 0.208

RRIRSRPPRLPRPRPRPRKLPRP
shrunken log2 fold change: 0.316

RRIRSRPPRLPRPRPRPRKVPRP
shrunken log2 fold change: 1.58

RRIRSRPPRLPRPRPRPRLSPRP
shrunken log2 fold change: 0.00425

RRIRSRPPRLPRPRPRPRMAPRP
shrunken log2 fold change: 1.31

RRIRSRPPRLPRPRPRPRMKPRP
shrunken log2 fold change: -0.0423

RRIRSRPPRLPRPRPRPRMPPRP
shrunken log2 fold change: 0.0543

RRIRSRPPRLPRPRPRPRMRPRP
shrunken log2 fold change: 0.91

RRIRSRPPRLPRPRPRPRMVPRP
shrunken log2 fold change: 0.174

RRIRSRPPRLPRPRPRPRQAPRP
shrunken log2 fold change: -0.0163

RRIRSRPPRLPRPRPRPRQIPRP
shrunken log2 fold change: -0.066

RRIRSRPPRLPRPRPRPRRMPRP
shrunken log2 fold change: 0.141

RRIRSRPPRLPRPRPRPRSKPRP
shrunken log2 fold change: 0.0951

RRIRSRPPRLPRPRPRPRVPPRP
shrunken log2 fold change: 0.692

RRIRSRPPRLPRPRPRPRVVPRP
shrunken log2 fold change: 0.245

RRIRSRPPRLPRPRPRPRWDPRP
shrunken log2 fold change: 0.197

RRIRSRPPRLPRPRPRPRWIPRP
shrunken log2 fold change: 0.00261

RRIRSRPPRLPRPRPRPRWKPRP
shrunken log2 fold change: 0.206

RRIRSRPPRLPRPRPRPRWNPRP
shrunken log2 fold change: 0.0205

RRIRSRPPRLPRPRPRPRWQPRP
shrunken log2 fold change: 0.166

RRIRSRPPRLPRPRPRPSCAPRP
shrunken log2 fold change: 0.0589

RRIRSRPPRLPRPRPRPSCKPRP
shrunken log2 fold change: -0.797

RRIRSRPPRLPRPRPRPSDQPRP
shrunken log2 fold change: -0.127

RRIRSRPPRLPRPRPRPSEEPRP
shrunken log2 fold change: -0.243

RRIRSRPPRLPRPRPRPSEHPRP
shrunken log2 fold change: -0.579

RRIRSRPPRLPRPRPRPSGGPRP
shrunken log2 fold change: -0.0437

RRIRSRPPRLPRPRPRPSGRPRP
shrunken log2 fold change: 0.185

RRIRSRPPRLPRPRPRPSGVPRP
shrunken log2 fold change: -0.0112

RRIRSRPPRLPRPRPRPSGWPRP
shrunken log2 fold change: 0.434

RRIRSRPPRLPRPRPRPSHRPRP
shrunken log2 fold change: -0.41

RRIRSRPPRLPRPRPRPSIYPRP
shrunken log2 fold change: -0.00286

RRIRSRPPRLPRPRPRPSKMPRP
shrunken log2 fold change: -0.0555

RRIRSRPPRLPRPRPRPSMNPRP
shrunken log2 fold change: -0.454

RRIRSRPPRLPRPRPRPSMVPRP
shrunken log2 fold change: -0.368

RRIRSRPPRLPRPRPRPSNRPRP
shrunken log2 fold change: -0.114

RRIRSRPPRLPRPRPRPSQYPRP
shrunken log2 fold change: -0.466

RRIRSRPPRLPRPRPRPSRHPRP
shrunken log2 fold change: 0.0757

RRIRSRPPRLPRPRPRPSSGPRP
shrunken log2 fold change: -0.0991

RRIRSRPPRLPRPRPRPSTLPRP
shrunken log2 fold change: 0.658

RRIRSRPPRLPRPRPRPSWYPRP
shrunken log2 fold change: -0.745

RRIRSRPPRLPRPRPRPTATPRP
shrunken log2 fold change: 0.703

RRIRSRPPRLPRPRPRPTCRPRP
shrunken log2 fold change: -0.0471

RRIRSRPPRLPRPRPRPTEMPRP
shrunken log2 fold change: 0.233

RRIRSRPPRLPRPRPRPTFGPRP
shrunken log2 fold change: -0.0366

RRIRSRPPRLPRPRPRPTFMPRP
shrunken log2 fold change: -0.335

RRIRSRPPRLPRPRPRPTGHPRP
shrunken log2 fold change: -0.0852

RRIRSRPPRLPRPRPRPTGVPRP
shrunken log2 fold change: 0.0241

RRIRSRPPRLPRPRPRPTHKPRP
shrunken log2 fold change: 0.202

RRIRSRPPRLPRPRPRPTINPRP
shrunken log2 fold change: -0.229

RRIRSRPPRLPRPRPRPTLAPRP
shrunken log2 fold change: 0.542

RRIRSRPPRLPRPRPRPTLDPRP
shrunken log2 fold change: 0.47

RRIRSRPPRLPRPRPRPTMHPRP
shrunken log2 fold change: 0.0312

RRIRSRPPRLPRPRPRPTMRPRP
shrunken log2 fold change: 0.881

RRIRSRPPRLPRPRPRPTMWPRP
shrunken log2 fold change: 0.214

RRIRSRPPRLPRPRPRPTMYPRP
shrunken log2 fold change: -0.247

RRIRSRPPRLPRPRPRPTNDPRP
shrunken log2 fold change: -0.162

RRIRSRPPRLPRPRPRPTNIPRP
shrunken log2 fold change: -0.434

RRIRSRPPRLPRPRPRPTNPPRP
shrunken log2 fold change: -0.0555

RRIRSRPPRLPRPRPRPTPCPRP
shrunken log2 fold change: 0.254

RRIRSRPPRLPRPRPRPTPLPRP
shrunken log2 fold change: 0.159

RRIRSRPPRLPRPRPRPTQQPRP
shrunken log2 fold change: 0.138
